Laboratory results published in the supplement of paper PMC5998384.

Columns and labels:
[1] = tested on: HeLa Kyoto; assay: solubility in G1/S (NP-40 vs SDS abundance) (log2 ratio); higher = more soluble; conditions: cell cycle stage: G1/S
[2] = tested on: HeLa Kyoto; assay: melting temperature (median over replicates), in situ; higher = more thermally stable
[3] = tested on: HeLa Kyoto; assay: thermal stability score vs G1/S (z-score of summed log2 fold changes over temperatures); higher = more thermally stable than in G1/S
[4] = tested on: HeLa Kyoto; assay: solubility change mitosis vs G1/S (difference of NP-40 vs SDS log2 ratios) (log2 ratio difference); higher = more soluble in mitosis
[5] = cell cycle stage: early G1 (4.5 h after nocodazole release)
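Throughout, for melting temperature (median over replicates), in situ: HeLa Kyoto cells synchronized by double thymidine or nocodazole block, proteins quantified by TMT10plex mass spectrometry, three independent biological replicates.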
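Throughout, for solubility change mitosis vs G1/S (difference of NP-40 vs SDS log2 ratios): synchronized HeLa Kyoto cells (double thymidine block for G1/S, nocodazole release for mitosis), protein amounts in NP-40 versus SDS lysates quantified by mass spectrometry, three biological replicates.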
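Throughout, for solubility in G1/S (NP-40 vs SDS abundance): HeLa Kyoto cells arrested at G1/S by double thymidine block, proteins quantified by TMT10plex mass spectrometry in mild NP-40 versus SDS extracts, three biological replicates.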
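Throughout, for thermal stability score vs G1/S (z-score of summed log2 fold changes over temperatures): synchronized HeLa Kyoto cells, proteins quantified by TMT10plex mass spectrometry, three biological replicates, mitosis taken 0.5 h after nocodazole release, G1/S directly after double thymidine block.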

Chain of TIMM17B (chain, as listed by the source): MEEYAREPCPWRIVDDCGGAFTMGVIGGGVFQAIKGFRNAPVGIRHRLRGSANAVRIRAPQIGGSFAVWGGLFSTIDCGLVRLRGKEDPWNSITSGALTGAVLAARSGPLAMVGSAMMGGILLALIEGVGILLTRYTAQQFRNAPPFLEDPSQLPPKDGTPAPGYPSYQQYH

“MAGASELGTGPGAAGGDGDDSLYPIAVLIDELRNEDVQLRLNSIKKLSTIALALGVERTRSELLPFLTDTIYDEDEVLLALAEQLGNFTGLVGGPDFAHCLLPPLENLATVEETVVRDKAVESLRQISQEHTPVALEAYFVPLVKRLASGDWFTSRTSACGLFSVCYPRASNAVKAEIRQQFRSLCSDDTPMVRRAAASKLGEFAKVLELDSVKSEIVPLFTSLASDEQDSVRLLAVEACVSIAQLLSQDDLETLVMPTLRQAAEDKSWRVRYMVADRFSELQKAMGPKITLNDLIPAFQNLLKDCEAEVRAAAAHKVKELGENLPIEDRETIIMNQILPYIKELVSDTNQHVKSALASVIMGLSTILGKENTIEHLLPLFLAQLKDECPDVRLNIISNLDCVNEVIGIRQLSQSLLPAIVELAEDAKWRVRLAIIEYMPLLAGQLGVEFFDEKLNSLCMAWLVDHVYAIREAATNNLMKLVQKFGTEWAQNTIVPKVLVMANDPNYLHRMTTLFCINALSEACGQEITTKQMLPIVLKMAGDQVANVRFNVAKSLQKIGPILDTNALQGEVKPVLQKLGQDEDMDVKYFAQEAISVLALA [PPP2R1B]” was tested, and the “solubility in G1/S (log2)” value [1] was 0.391, the melting temperature ([2]; cell cycle stage: G1/S) was 49.2 °C and the melting temperature ([2]; cell cycle stage: mitosis) was 49.6 °C. For the same substance, the thermal stability score [3, 5] was 1.92, the thermal stability score ([3]; cell cycle stage: mitosis) was 2.96 and the “solubility change mitosis (log2)” value [4] was -0.0603.

With “MDPLSELQDDLTLDDTSEALNQLKLASIDEKNWPSDEMPDFPKSDDSKSSSPELVTHLKWDDPYYDIARHQIVEVAGDDKYGRKIIVFSACRMPPSHQLDHSKLLGYLKHTLDQYVESDYTLLYLHHGLTSDNKPSLSWLRDAYREFDRKYKKNIKALYIVHPTMFIKTLLILFKPLISFKFGQKIFYVNYLSELSEHVKLEQLGIPRQVLKYDDFLKSTQKSPATAPKPMPPRPPLPNQQFGVSLQHLQEKNPEQEPIPIVLRETVAYLQAHALTTEGIFRRSANTQVVREVQQKYNMGLPVDFDQYNELHLPAVILKTFLRELPEPLLTFDLYPHVVGFLNIDESQRVPATLQVLQTLPEENYQVLRFLTAFLVQISAHSDQNKMTNTNLAVVFGPNLLWAKDAAITLKAINPINTFTKFLLDHQGELFPSPDPSGL [ARHGAP1]” the “solubility in G1/S (log2)” value [1] was 0.473, the melting temperature ([2]; cell cycle stage: G1/S) was 51.4 °C and the melting temperature ([2]; cell cycle stage: mitosis) was 51.4 °C. The thermal stability score [3, 5] was 0.517, the thermal stability score ([3]; cell cycle stage: mitosis) was 0.431 and the “solubility change mitosis (log2)” value [4] was -0.0609.

For TPM4, the “solubility in G1/S (log2)” value [1] was 0.907, the melting temperature ([2]; cell cycle stage: G1/S) was 55.8 °C and the thermal stability score [3, 5] was -0.98. For the same substance, the thermal stability score ([3]; cell cycle stage: mitosis) was -3.48 and the “solubility change mitosis (log2)” value [4] was 0.532.

In the case of TIMM17B, the “solubility in G1/S (log2)” value [1] is reported as 0.308, the melting temperature ([2]; cell cycle stage: G1/S) is reported as 54.9 °C and the melting temperature ([2]; cell cycle stage: mitosis) is reported as 57.2 °C. For the same substance, the thermal stability score [3, 5] was -0.611, the thermal stability score ([3]; cell cycle stage: mitosis) was -0.727 and the “solubility change mitosis (log2)” value [4] was 0.0028.

“MAALKSWLSRSVTSFFRYRQCLCVPVVANFKKRCFSELIRPWHKTVTIGFGVTLCAVPIAQKSEPHSLSSEALMRRAVSLVTDSTSTFLSQTTYALIEAITEYTKAVYTLTSLYRQYTSLLGKMNSEEEDEVWQVIIGARAEMTSKHQEYLKLETTWMTAVGLSEMAAEAAYQTGADQASITARNHIQLVKLQVEEVHQLSRKAETKLAEAQIEELRQKTQEEGEERAESEQEAYLRED [DIABLO]” was tested, and the “solubility in G1/S (log2)” value [1] was -0.173, the melting temperature ([2]; cell cycle stage: G1/S) was 54.9 °C and the melting temperature ([2]; cell cycle stage: mitosis) was 53.3 °C. For the same substance, the thermal stability score [3, 5] was -0.685, the thermal stability score ([3]; cell cycle stage: mitosis) was -1.02 and the “solubility change mitosis (log2)” value [4] was 0.345.

With EPPK1 the “solubility in G1/S (log2)” value [1] was -2.27, the melting temperature ([2]; cell cycle stage: mitosis) was 51.3 °C and the thermal stability score [3, 5] was -7.26. For the same substance, the thermal stability score ([3]; cell cycle stage: mitosis) was -8.82 and the “solubility change mitosis (log2)” value [4] was 0.311.

For “MAEGDEAARGQQPHQGLWRRRRTSDPSAAVNHVSSTTSLGENYEDDDLVNSDEVMKKPCPVQIVLAHEDDHNFELDEEALEQILLQEHIRDLNIVVVSVAGAFRKGKSFLLDFMLRYMYNKDSQSWIGGNNEPLTGFTWRGGCERETTGIQVWNEVFVIDRPNGTKVAVLLMDTQGAFDSQSTIKDCATVFALSTMTSSVQVYNLSQNIQEDDLQHLQLFTEYGRLAMEEIYQKPFQTLMFLIRDWSYPYEHSYGLEGGKQFLEKRLQVKQNQHEELQNVRKHIHNCFSNLGCFLLPHPGLKVATNPSFDGRLKDIDEDFKRELRNLVPLLLAPENLVEKEISGSKVTCRDLVEYFKAYIKIYQGEELPHPKSMLQATAEANNLAAVAGARDTYCKSMEQVCGGDKPYIAPSDLERKHLDLKEVAIKQFRSVKKMGGDEFCRRYQDQLEAEIEETYANFIKHNDGKNIFYAARTPATLFAVMFAMYIISGLTGFIGLNSIAVLCNLVMGLALIFLCTWAYVKYSGEFREIGTVIDQIAETLWEQVLKPLGDNLMEENIRQSVTNSIKAGLTDQVSHHARLKTD [ATL2]”, the “solubility in G1/S (log2)” value [1] was -0.0336, the melting temperature ([2]; cell cycle stage: G1/S) was 51.8 °C and the melting temperature ([2]; cell cycle stage: mitosis) was 51.8 °C. For the same substance, the thermal stability score [3, 5] was -0.416, the thermal stability score ([3]; cell cycle stage: mitosis) was -0.584 and the “solubility change mitosis (log2)” value [4] was -0.192.

With TCF20 the “solubility in G1/S (log2)” value [1] was -0.513, the melting temperature ([2]; cell cycle stage: mitosis) was 51.1 °C and the thermal stability score [3, 5] was 0.72. The thermal stability score ([3]; cell cycle stage: mitosis) was 1.03 and the “solubility change mitosis (log2)” value [4] was 0.527.

“MKLLARALRLCEFGRQASSRRLVAGQGCVGPRRGCCAPVQVVGPRADLPPCGACITGRIMRPDDANVAGNVHGGTILKMIEEAGAIISTRHCNSQNGERCVAALARVERTDFLSPMCIGEVAHVSAEITYTSKHSVEVQVNVMSENILTGAKKLTNKATLWYVPLSLKNVDKVLEVPPVVYSRQEQEEEGRKRYEAQKLERMETKWRNGDIVQPVLNPEPNTVSYSQSSLIHLVGPSDCTLHGFVHGGVTMKLMDEVAGIVAARHCKTNIVTASVDAINFHDKIRKGCVITISGRMTFTSNKSMEIEVLVDADPVVDSSQKRYRAASAFFTYVSLSQEGRSLPVPQLVPETEDEKKRFEEGKGRYLQMKAKRQGHAEPQP [ACOT7]” was tested, and the “solubility in G1/S (log2)” value [1] was 0.0352, the melting temperature ([2]; cell cycle stage: G1/S) was 58.9 °C and the melting temperature ([2]; cell cycle stage: mitosis) was 59.2 °C. The thermal stability score [3, 5] was -2.43, the thermal stability score ([3]; cell cycle stage: mitosis) was -3.98 and the “solubility change mitosis (log2)” value [4] was -0.0718.
